Results from patent US20110076265A1 (POMONA RICERCA S R L, published 2011).

Experiments:
[1] = target: Hemagglutinin of influenza B virus B/Lee/40 (influenza B virus B/Lee/40, UniProt P03460 16-584); test: immunofluorescence on fixed, permeabilized infected cells
[2] = target: T1, H3-subtype hemagglutinin of influenza A virus A/Aichi/2/68 (H3N2) (influenza A virus A/Aichi/2/68 (H3N2), UniProt P03437 17-566); test: as above
T1 construct: also called A/Aichi/2/68 (ATCC VR-547)

[3] = target: H1-subtype hemagglutinin of influenza A virus A/Wilson-Smith/33 (influenza A virus A/Wilson-Smith/33 …, UniProt P03454 18-565); test: ELISA, sequential dilutions of purified Fab on infected cell lysates
[4] = target: HA protein (H1-subtype hemagglutinin) of influenza A virus A/PR/08/1934 (influenza A virus A/PR/08/1934 (H1N1), UniProt P03452 18-565); test: immunofluorescence on fixed, permeabilized infected cells, Fab49 at 100 µg/ml

B1: Fab49 (human monoclonal Fab fragment produced by bacterial clone INF49) (Fab, V domains shown)
VH: LESGGGLVQPGGSLRLSCAASGITFSSYAMSWVRQAPGKGLEWVSTVNSGGGSTYYGDSVRGRFTISRDNSKSTLYLQLNSLRAEDTAIYYCAKDKGRPIFGLVTPSYYMDVWGNGT
VL: ELTQSPSSLSASVGDSVTITCRTSERISTYLNWYQQKPGKAPRLLVSGASTLQGGVPSRFSGSGSGTAFTLTINSLQPEDFATYYCQQSYSTPLTFGGGT
B1: no binding (tested: 100 µg/ml) [1]; no binding (tested: 100 µg/ml) [2]; binds [3]. B1: binds [4].
